Source: article PMC4398458, “Reversible Linkage of Two Distinct Small Molecule Inhibitors of Myc Generates a Dimeric Inhibitor with Improved Potency That Is Active in Myc Over-Expressing Cancer Cell Lines” (PLoS ONE, 2015)

Biological target: c-Myc bHLH-LZ;Max (human;human, UniProt P01106-1;P61244 352-439;1-160, |)
Experiment: EMSA; Myc:Max heterodimer, no inhibitor; EMSA: 100 mM KCl, 1 mM DTT, 1 mM EDTA, 50 mM Tris pH 7.4, 5 mM MgCl2, 0.002% NP40, 2% DMSO, room temperature; 200 ng Myc, 350 ng Max, 100 nM DNA, 10 ul; gel run in TBE at 4 C
Conditions: protein: recombinant;commercial; tags: N-terminal 6xHis with TEV cleavage site; C-terminal GGCD extension;His and GST; copies: 1;1; label: none (SYBR Green stain); (only one strand given)

Sequence of c-Myc bHLH-LZ;Max (P01106 367-454, chain 1 of 2): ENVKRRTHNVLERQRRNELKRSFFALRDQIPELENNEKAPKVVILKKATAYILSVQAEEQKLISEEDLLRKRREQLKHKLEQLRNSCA
Sequence of c-Myc bHLH-LZ;Max (P61244 whole entry, chain 2 of 2): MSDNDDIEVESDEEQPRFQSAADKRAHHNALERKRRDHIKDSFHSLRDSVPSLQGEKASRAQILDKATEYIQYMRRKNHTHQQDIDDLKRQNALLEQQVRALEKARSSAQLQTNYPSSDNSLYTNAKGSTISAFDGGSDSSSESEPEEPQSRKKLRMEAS

B1: E-box oligonucleotide (dsDNA)
DNA 1: GATCAGTTGACCACGTGGTCTGGG
DNA 2: CCCAGACCACGTGGTCAACTGATC
binding result: binds
